IC50, KLK5-induced IL-8 secretion by A549 cells data for one substance are collected here from US20200040103A1.

The target of the test is recombinant human KLK5 (human) (UniProt Q9Y337). The experiment in a line: cell-based or functional assay.
Sequence of recombinant human KLK5 (human) (Q9Y337 67-293): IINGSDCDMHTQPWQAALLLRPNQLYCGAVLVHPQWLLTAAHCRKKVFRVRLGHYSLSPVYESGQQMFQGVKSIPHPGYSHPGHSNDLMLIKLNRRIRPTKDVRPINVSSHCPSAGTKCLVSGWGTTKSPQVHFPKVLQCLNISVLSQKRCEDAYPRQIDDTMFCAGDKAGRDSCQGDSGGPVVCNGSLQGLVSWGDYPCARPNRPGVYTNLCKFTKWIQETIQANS

In the case of Spink5.Fc (Fc fusion), the IC50, KLK5-induced IL-8 secretion by A549 cells came to 21 nM.
